B1: porcine heart L-lactate dehydrogenase (enzyme)
chain: not shown
notes: L-lactate dehydrogenase from porcine heart (phLDH), tetramer; also called phLDH; PhLDH
B2: baker's yeast D-glyceraldehyde-3-phosphate dehydrogenase (enzyme)
chain: VRVAINGFGRIGRLVMRIALSRPNVEVVALNDPFITNDYAAYMFKYDSTHGRYAGEVSHDDKHIIVDGKKIATYQERDPANLPWGSSNVDIAIDSTGVFKELDTAQKHIDAGAKKVVITAPSSTAPMFVMGVNEEKYTSDLKIVSNASCTTNCLAPLAKVINDAFGIEEGLMTTVHSLTATQKTVDGPSHKDWRGGRTASGNIIPSSTGAAKAVGKVLPELQGKLTGMAFRVPTVDVSVVDLTVKLNKETTYDEIKKVVKAAAEGKLKGVLGYTEDAVVSSDFLGDSHSSIFDASAGIQLSPKFVKLVSWYDNEYGYSTRVVDLVEHVAKA
modifications: Homotetramer, apo-enzyme preparation from yeast (NADH added in the binding assays). The isozyme is taken as TDH3 because the cited PDB 3PYM is GAPDH 3. The natural preparation may contain minor …

What was measured:
[1] = biological target: the molecule itself; test: AUC; sedimentation velocity of each enzyme alone at 6 μM; scans at 280 nm, 7 hours at 40,000 x g; SEDFIT with s and Mr as free fit parameters; Mr compared with the mass calculated from the sequence
[2] = biological target: B2; test: cell-based or functional assay
[3] = biological target: T1, rabbit muscle D-glyceraldehyde-3-phosphate dehydrogenase (rabbit, UniProt P46406 2-333); test: cell-based or functional assay
T1 sequence (P46406 2-333): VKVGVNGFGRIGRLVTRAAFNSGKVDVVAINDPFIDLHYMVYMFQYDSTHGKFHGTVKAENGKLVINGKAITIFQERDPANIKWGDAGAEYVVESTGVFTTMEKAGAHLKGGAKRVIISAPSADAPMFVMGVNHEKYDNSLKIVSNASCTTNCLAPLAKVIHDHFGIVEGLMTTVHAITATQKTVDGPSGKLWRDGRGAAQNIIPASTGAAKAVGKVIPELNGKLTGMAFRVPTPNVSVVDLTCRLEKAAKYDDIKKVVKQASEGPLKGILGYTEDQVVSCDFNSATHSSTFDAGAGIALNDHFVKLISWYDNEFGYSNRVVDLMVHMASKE

[4] = biological target: B2; test: cell-based or functional assay; remark: listed apart in the source
[5] = biological target: T1, rabbit muscle …; test: cell-based or functional assay; remark: listed apart in the source
[6] = biological target: B1; test: AUC; sedimentation velocity of a mixture of phLDH and byGAPDH, each 6 μM; 50 mM Tris/HCl, pH = 7.2, 1 mM EDTA, 0.5 mM DTT; scans at 280 nm, 7 hours at 40,000 x g; fit with SEDFIT to a one-component model and compared with a Claverie simulation of 10% association; settings: both partners purified

Binder | binding result [1] | ratio between measured phLDH activity and the calculated free-diffusion activity; 40 μM NADH, byGAPDH 240 to 480 μM of NADH binding sites; ratio rises from 3.5 to 6.1 fold [2] [fold] | ratio between measured phLDH activity and the calculated free-diffusion activity; byGAPDH fixed at 480 μM NADH binding sites, NADH decreased from 40 to 10 μM; ratio rises from 5.2 to 6.6 fold [2] [fold] | ratio between measured phLDH activity and the calculated free-diffusion activity; 40 μM NADH, rmGAPDH 100 to 240 μM of NADH binding sites; ratio rises from 1.3 to 2.0 fold [3] [fold] | ratio between measured phLDH activity and the calculated free-diffusion activity; rmGAPDH fixed at 200 μM NADH binding sites, NADH decreased from 40 to 10 μM; ratio rises from 1.7 to 2.28 fold [3] [fold] | apparent KM of phLDH with byGAPDH-NADH complex as substrate (630 μM pyruvate) [4] [µM] | apparent KM of phLDH with rmGAPDH-NADH complex as substrate (630 μM pyruvate) [5] [µM] | Kd [6] [µM]
B1 | binds | 6.1 | 6.6 | 2 | 2.28 | 116 | 59.6 | 
B2 |  |  |  |  |  |  |  | ≥ 48.6

— PMC7320145, “Substrate Channeling via a Transient Protein-Protein Complex: The case of D-Glyceraldehyde-3-Phosphate Dehydrogenase and L-Lactate Dehydrogenase” (Scientific Reports, 2020)
